This is an account of results in publication PMC10275869 (Nature Communications, 2023).

B1: 1F5 (human IgG1) (antibody, V domains shown)
VH: DVQLQESGPGLVKPSQSLSLTCSVTGYSITSDYYWNWIRQFPGNKLEWMGYVTYDGSNNYNPSLKNRISITRDSSKNQFFLKLNSVISEDTATYYCARFGSSYWAMDYWGQGTSLTVSS
VL: QIVLTQSPAIMSASLGEAITLTCSASSSVSYMHWYQQKSGTSPKLLIYSTSNLASGVPSRFSGSGSGTFYSLTISSVEAEDAADYYCHQWYSYPWTFGGGTKLEIK
B2: mAb66 (human IgG1) (antibody, V domains shown)
VH: ETGSGGGLVKPGGTLTLTCKASGFTLSSYWMCWVRQAPGKGLELIACLYTNGATTWYASWVNGRFAISRSTSRNTVDLNMTSLTAADTATYFCARGSGSGWSWFNIWGPGTLVTVSS
VL: TGVMTQTPASVEAAVGGTVTIKCQASQNIISSLAWYQQKPGQRPKLLIYYASTLASGVPSRFKGSGSGTQFTLTISDLECADAATYYCQSYYYSGITYGNAFGGGTEVVVK
B3: 5B3 (human IgG1) (antibody, V domains shown)
VH: EVQLVESGGGLVKPGGSLKLSCAASGFTFSSYDMSWVRQTPEKRLEWVAMISSGGSYSYYPDSVKGRFTISRDNAKNTLYLQMSSLRSEDTAMYYCARQGDYAWFAYWGQGTLVTVSS
VL: DIQMTQSPASQSASLGESVTITCLASQTIGTWLAWYQQKPGKSPQLLIYAATSLADGVPSRFSGSGSGTKFSFKISSLQAEDFVSYYCQQFYSTPFTFGGGTKLEIK
B4: 12B2 (human IgG1) (antibody, V domains shown)
VH: QVQLKESGPGLVAPSQSLSITCTVSGFSLASYGVHWVRQPPGKGLEWLGVIWTGGSTNYNSALMSRLSINRDNSKSQVFLKLNSLQTDDTAIYYCARDRGYGYGGFAYWGQGTLVTVSA
VL: DIQMTQSPASLSASVGETVTITCRASENIYSYLAWYQHKQGKSPQLLVYNAKSLAEGVPSRFSGSGSGTQFSLKINSLQPEDFGSYYCQHHYGTPWTFGGGTKLEIK

One experiment concerns the target LayV F clamp2 (prefusion Langya virus fusion glycoprotein ectodomain stabilised with the clamp2 molecular … (Langya virus (GenBank UUV47205.1), stabilised, N-linked glycans at N65 and N459)). The experiment can be described thus: ELISA. The following applies: both partners purified. (In general: ELISA stands for enzyme-linked immunosorbent assay.)
Regarding B1, the binding result was “no binding (tested: 50 μg/mL)”.

Regarding B2, the binding result is “no binding (tested: 50 μg/mL)”.

For the molecule B3, the binding result is reported as “no binding (tested: 50 μg/mL)”.

B4: the binding result is given as “no binding (tested: 50 μg/mL)”.

Another experiment addresses T1, prefusion clamp2 stabilized NiV F (Nipah virus, strain  (Q9IH63 …, UniProt Q9IH63, stabilised)).
T1 construct: also called Nipah virus F
The experiment can be described thus: ELISA. The conditions noted are these: both partners purified.
As for B1, the binding result is “binds”.

As to B2, the binding result is “binds”.

Consider B3, for which the binding result is on record as “binds”.

For B4, the binding result is reported as “binds”.
